# Reference: paper PMC8053108, “RPA2 winged-helix domain facilitates UNG-mediated removal of uracil from ssDNA; implications for repair of mutagenic uracil at the replication fork” (Nucleic Acids Research, 2021)
# Key:
# [1] = target: RPA2 (subunit of the RPA trimer) (UniProt P15927); experiment: peptide-bead pull-down, anti-RPA2 blot
# [2] = target: RPA trimer lacking the RPA2 winged-helix domain (RPA-ΔWH) (human) (UniProt P27694)
# [3] = target: human replication protein A (RPA) heterotrimer, recombinant (human) (UniProt P27694)
# Chain of human replication protein A (RPA) heterotrimer, recombinant (human) (P27694 whole entry, chain 1 of 3): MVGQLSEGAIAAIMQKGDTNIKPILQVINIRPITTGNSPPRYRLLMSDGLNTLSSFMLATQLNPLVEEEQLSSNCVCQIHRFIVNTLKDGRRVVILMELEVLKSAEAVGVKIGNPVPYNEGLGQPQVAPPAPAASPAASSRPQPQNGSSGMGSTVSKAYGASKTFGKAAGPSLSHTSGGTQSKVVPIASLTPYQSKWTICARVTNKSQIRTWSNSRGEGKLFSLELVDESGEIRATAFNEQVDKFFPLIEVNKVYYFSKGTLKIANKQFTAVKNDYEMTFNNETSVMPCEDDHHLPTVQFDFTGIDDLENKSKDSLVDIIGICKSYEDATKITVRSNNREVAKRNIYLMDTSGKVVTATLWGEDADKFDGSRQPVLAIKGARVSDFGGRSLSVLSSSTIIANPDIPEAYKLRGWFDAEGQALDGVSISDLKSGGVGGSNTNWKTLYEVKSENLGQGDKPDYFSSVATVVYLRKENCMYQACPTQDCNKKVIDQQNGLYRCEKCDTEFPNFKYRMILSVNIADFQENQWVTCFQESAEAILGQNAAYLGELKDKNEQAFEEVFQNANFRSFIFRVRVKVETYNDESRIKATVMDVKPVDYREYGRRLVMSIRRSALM
# Chain of human replication protein A (RPA) heterotrimer, recombinant (human) (P15927 whole entry, chain 2 of 3, further chain): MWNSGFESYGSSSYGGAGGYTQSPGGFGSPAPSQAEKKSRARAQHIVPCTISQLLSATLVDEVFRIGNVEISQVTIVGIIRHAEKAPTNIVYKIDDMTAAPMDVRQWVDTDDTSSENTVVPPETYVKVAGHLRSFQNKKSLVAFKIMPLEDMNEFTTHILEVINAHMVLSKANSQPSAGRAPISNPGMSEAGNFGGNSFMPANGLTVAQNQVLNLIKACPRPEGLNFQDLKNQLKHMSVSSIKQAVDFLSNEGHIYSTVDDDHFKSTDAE
# Chain of human replication protein A (RPA) heterotrimer, recombinant (human) (P35244 whole entry, chain 3 of 3, further chain): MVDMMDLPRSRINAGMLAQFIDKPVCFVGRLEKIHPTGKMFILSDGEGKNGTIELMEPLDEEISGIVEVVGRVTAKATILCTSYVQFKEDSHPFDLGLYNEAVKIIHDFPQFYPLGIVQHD
# [4] = target: human replication protein A (RPA) heterotrimer, recombinant (human) (UniProt P27694); remark: listed apart in the source
# [5] = target: RPA2 (subunit of the RPA trimer) (UniProt P15927); experiment: MST with dye-labelled RPA trimer
# RPA2 WH (Homo sapiens) [6] = target: RPA2 WH (Homo sapiens) (UniProt P15927); experiment: NMR; settings: cited from earlier work
# Chain of RPA2 WH (Homo sapiens) (P15927 172-270): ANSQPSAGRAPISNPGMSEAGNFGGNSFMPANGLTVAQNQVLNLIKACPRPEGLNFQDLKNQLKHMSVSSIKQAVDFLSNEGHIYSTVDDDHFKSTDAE
# RPA2 WH (Homo sapiens) [7] = target: RPA2 WH (Homo sapiens) (UniProt P15927); experiment: ITC; settings: cited from earlier work
# Chain of UNG catalytic domain (UNG-CD), starting at UNG2 aa 93 (P13051 93-313): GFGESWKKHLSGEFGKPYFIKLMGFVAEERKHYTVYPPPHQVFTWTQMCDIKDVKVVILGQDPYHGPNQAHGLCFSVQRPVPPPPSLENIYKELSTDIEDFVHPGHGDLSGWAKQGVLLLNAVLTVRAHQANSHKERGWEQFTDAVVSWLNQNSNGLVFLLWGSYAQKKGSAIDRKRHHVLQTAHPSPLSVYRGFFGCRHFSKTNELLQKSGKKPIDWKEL
# Chain of UNG2 peptide (24 aa) (P13051 whole entry): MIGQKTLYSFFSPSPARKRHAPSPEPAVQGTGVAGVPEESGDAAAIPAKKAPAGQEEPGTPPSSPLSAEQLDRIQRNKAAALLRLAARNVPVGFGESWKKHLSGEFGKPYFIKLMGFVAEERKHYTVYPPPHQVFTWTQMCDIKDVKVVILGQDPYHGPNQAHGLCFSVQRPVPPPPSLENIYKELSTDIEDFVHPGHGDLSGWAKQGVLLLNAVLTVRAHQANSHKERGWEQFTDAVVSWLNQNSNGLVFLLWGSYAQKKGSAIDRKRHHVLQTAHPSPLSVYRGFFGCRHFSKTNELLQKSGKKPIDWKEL
# Chain of UNG2 peptide (16 aa) (P13051 whole entry): as above
# Chain of RPA trimer lacking the RPA2 winged-helix domain (RPA-ΔWH) (human) (P27694 whole entry, stated change not applied, chain 1 of 3, the tested form may be a part): as the sequence (P27694 whole entry, chain 1 of 3) above
# Chain of RPA trimer lacking the RPA2 winged-helix domain (RPA-ΔWH) (human) (chain, as listed by the source mutant, chain 2 of 3): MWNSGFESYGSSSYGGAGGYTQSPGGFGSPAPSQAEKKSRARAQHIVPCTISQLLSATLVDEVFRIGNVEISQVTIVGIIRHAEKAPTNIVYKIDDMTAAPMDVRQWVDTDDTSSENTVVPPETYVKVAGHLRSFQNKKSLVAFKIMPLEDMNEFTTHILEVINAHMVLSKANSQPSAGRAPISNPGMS
# Chain of RPA trimer lacking the RPA2 winged-helix domain (RPA-ΔWH) (human) (chain, as listed by the source mutant, chain 3 of 3): as the sequence (P35244 whole entry, chain 3 of 3, further chain) above
substance,measurement,setting,value
UNG2 57-90 (from UniProt P13051) pEV-34 (pT60) peptide beads,binding against the reference,"[1]; reference: EV-34 unphosphorylated peptide beads, sites T60",weaker
"UNG catalytic domain (UNG-CD), starting at UNG2 aa 93 (from UniProt P13051-1 93-313) (domain or fragment)",fold increase of enzyme concentration needed to convert similar amounts of dsDNA substrate with 500 nM RPA-ΔWH,[2],50 fold
same,fold increase of enzyme concentration needed to convert similar amounts of dsDNA substrate with 500 nM RPA-WT,[3],200 fold
same,fold decrease in uracil excision from RPA (1 µM)-coated against naked ssDNA (100 nM U10-25*),[4],1000 fold
"UNG2 57-90 (from UniProt P13051) ppEV-34 (pT60, pS64) peptide beads",binding against the reference,"[1]; reference: EV-34 unphosphorylated peptide beads, sites T60,S64",weaker
same,binding against the reference,"[1]; reference: pEV-34 (pT60) peptide beads, sites S64",weaker
UNG2 57-90 (from UniProt P13051) pEV-34 (pT60) peptide,binding against the reference,"[5]; reference: EV-34 unphosphorylated peptide, sites T60",weaker
"UNG2 57-90 (from UniProt P13051) ppEV-34 (pT60, pS64) peptide",binding against the reference,"[5]; reference: EV-34 unphosphorylated peptide, sites T60,S64",weaker
same,binding against the reference,"[5]; reference: pEV-34 (pT60) peptide, sites S64",weaker
UNG2 peptide (16 aa) (from UniProt P13051),Kd,RPA2 WH (Homo sapiens) [6],< 1000 nM
UNG2 peptide (24 aa) (from UniProt P13051),Kd,RPA2 WH (Homo sapiens) [7],6.6 µM
